The values that follow come from the nanobody polyreactivity screen of Harvey et al. (2022).

A short description of the data set: yeast display, Sf9 membrane polyspecificity reagent, FACS + sequencing; frameworks hold sequencing errors. The procedure, abridged: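 A nanobody's polyreactivity label depends on the gate it was sorted from. Yeast display cells were stained with 10% biotinylated, detergent-solubilized Sf9 membrane reagent for 1 hour at 4 °C, enriched on streptavidin microbeads and sorted by FACS. The low and high (top ~1%) gates were set on anti-HA fluorescence for expression and streptavidin fluorescence for reagent binding.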
Consider “QVQLVESGGGLVQAGGSLLLRCAASGRTFKNYAKGWSRQAPGKERELVAAISSGGGRTKYADSEKGRFTISRDNAKNSVYLQLNSLKPDDTAVYYCAAAFYYRDDYWGQGSQVTVSS”, for which the “polyreactivity (PSR sort gate)” value is reported as “high polyreactivity”.
The result for “QVQLVESGGGLVQAGGSLLLSCAAAGSIFRTYAMGWYRQAPGKERELVAAISRSGSSTYYADSVKGRFTISRDNAKNTVYFQMNSLKPEDTAVYYCAALVRKYGVDYWGQGTQVTVSS” reads “high polyreactivity”; that for “QVQLVESGGGLVQAGGSLLLSCAASGFTFKCYAMGWYRQAPGKERELVAAISRSGSSTYYADSVKVRFTISRDTAKNTVYLQMNSLKPEDTAVYYCAAYYRTWGGYWGQGTQVTVSS”, “high polyreactivity”.
Under “QVQLVESGGGLVQAGGSLLLSCAASGFTFRYYAMGWNRQAPGKERELVAAINSGGSTNYADSVKGLFTISRDNAKNTVYLQMNSLKPEDTAVYYCAKRGRRGIEYLGSAEMDYWGEGTQVTVSS” stands “low polyreactivity”; under “QVQLVESGGGLVQAGGSLLLSCAASGIIFSSYVMGWYRQAHGKERELVAAISKSGARPSYADSVKGRFTISRDNAKNTVYLQMNSLKPEDTAVYYCAAAWHTAYWVGSDSQGGGYWGQGTQVTVSS”, “low polyreactivity”; under “QVQLVESGGGLVQAGGSLLLSCAASGLTFERYVMVWYRQAPGKERELVSSISRSGSTYYADSVKGRFTISRDNAKNTVYLQMNSLKPEDTAVYYCNADRFWFHWVYSRYHYDYWGQGTQVTVSS”, “high polyreactivity”.
Under “QVQLVESGGGLVQAGGSLLLSCAASGLTFTDNAMGWSRQAPGKERELVAAISQSGGRTFYADSVKGRFTISRDNAKNTVYLQINSLKPEDPAVYYCNSRRGSVAKYGYLGQGTQVTVSS” stands “high polyreactivity”; under “QVQLVESGGGLVQAGGSLLLSCAASGRIFIDYAMGLYRQAPGKERELVATISESGGTTYYADSVKGRFTISRDNGKNTVYLQMNSLKPEDTAVYYCAAKRLCRPYDYWGQGTQVTVSS”, “low polyreactivity”; under “QVQLVESGGGLVQAGGSLLLSCAASGRIFRSYAMGWYRQAPGKERELVAAISSGGSTKYADSVKGRFTISRDNAKNTVYLQMNSLKPVDTAVYYCAASRTRLGTSGTSYGAAYDYWGQGTQVTVSS”, “high polyreactivity”.
Take “QVQLVESGGGLVQAGGSLLLSCAASGRIINYYAMGWYRQAPGKEREFVAAITRSGGRTYYADSVKGRFTISRDNAKNTVYLQMNSLKPEDTAVYYCAAPYGTYAYDYWGQGTQVTVSS”: the “polyreactivity (PSR sort gate)” value was “high polyreactivity”.
The result for “QVQLVESGGGLVQAGGSLLLSCAASGRTFTGYAMGGYRQAPVKERELVAAISASGGSTYYADSVKGRFTISRDNAKNTVYLQMNSLIPEDTAVYYCAAETWYSVLWEEGYDYWGQGTQVTVSS” reads “low polyreactivity”; that for “QVQLVESGGGLVQAGGSLLLSCAASGSIFYNYAMGWYRQAPGKERELVAAISQSGGSTRYADSVKGRFTISRDNAKNTVYLQMNSLKPEDTAVYYCAASRRKGQGSAGFGYWGQGTQVTVSS”, “high polyreactivity”; that for “QVQLVESGGGLVQAGGSLLLSCAASGSTFAWYAMGWNRQAPGKERELVAAISRTGRTYYADSVKGRFTISRDNAKNTVYLEMNSLKPEDTAVYYCAARIERFYRDQRYDYWGQGTQVTVSS”, “high polyreactivity”.
The result for “QVQLVESGGGLVQAGGSLLLSCAASGSTFGSYDMGWYRQAPGKERELVATISTSGSGTYYADSVKGRFTISRDNSKNTVYLQMNSLKPEDTAFYDCAKDPADGRRFRYGYWGQGTQVTVSS” reads “low polyreactivity”; that for “QVQLVESGGGLVQAGGSLLLSCAASGSTFGYNTMGWYRQAPGKERELVAAINYSGGRTYYADSVKGRFTISRDYAMNTVYLQMNSQKPEDTAVYYCNALSYPSRVYDAYDYWGQGTQVTVSS”, “high polyreactivity”; that for “QVQLVESGGGLVQAGGSLLLSCAPSGITFVWYAMVWYRQAPGKERELVAAISRGGSTYYADSVKGRFTISRDNAKNTVYLQMNSLKPVDTAVYYCAARAPYIQQSVHISPRYYYSGQGTQVTVSS”, “high polyreactivity”.
As to “QVQLVESGGGLVQAGGSLLLSSAASGFTFGNNDMGWYRKSHGKERELVDAITKRGSSTYYADSVKGRFTISRDNAKNTVYLQMNSLKPEDTAVYHCAASWLGASGIRYDYWGQGTLVTVSS”, the “polyreactivity (PSR sort gate)” value is “high polyreactivity”.
For the sequence “QVQLVESGGGLVQAGGSLLLSSAASGSTLVYYTMGRYIPAPGKERELVAGITGSGGSTYYADSVKGRFTISRDNAKNTVYLQMNILIPEDTAVYYCAKRGFRSYHYIRGVYYWGQGTQVTVSS”, the “polyreactivity (PSR sort gate)” value was “low polyreactivity”.
Turning to “QVQLVESGGGLVQAGGSLPLSCAASGFIFPGYAMGWYRQAPGKERELVAVISSRGGSTKYADSVKGRFTISRDNANYSVYLQMNSLNPEDTAVYYCAAARAPRKYDSWGQGTQVTVSS”, the “polyreactivity (PSR sort gate)” value is given as “high polyreactivity”.
The result for “QVQLVESGGGLVQAGGSLPLSCAASGFIFTSNAMGWYRQAPGKERELVASISGNGGRTNYADSVKGRFTISRDNAKNTVYLQMNSLKPDDTAVYYCAARVRRFLNRVSRYPHDYWGQGTQVTVSS” reads “high polyreactivity”.
Turning to “QVQLVESGGGLVQAGGSLPLSCAASGFIYGGNAMGWYRQAPGKERELVAAISKSGGRTYYADSVKGRFTISRDNAKNTVYLQMNSLKPEDTAVYYCAAVPGRTAEDYGEDYWGQGTEVTVSS”, the “polyreactivity (PSR sort gate)” value is “high polyreactivity”.
For “QVQLVESGGGLVQAGGSLPLSCAASGITFHRYAMGWDRQAPGKERELVAAMSRGASTNYADSVKGRFTISRDNAKNTVYLQMNSLKPEDTAVYYCAARTIGWYSGSRFDYWGQCTQVTVSS”, the “polyreactivity (PSR sort gate)” value is “high polyreactivity”.
The result for “QVQLVESGGGLVQAGGSLPLSCAASGITFRYYAMGWYRQAPGKERELVAAITRGGRTNYADSVKGRFTISRDNAKNTVYLQMNSLKPEDTAVYYCATGRDSNFGNSYYYWGQGTQVTVSS” reads “high polyreactivity”; that for “QVQLVESGGGLVQAGGSLPLSCAASGRIFNSNAMGWYRQAPGKERELVAAIPISGSTNYADSVKGRFTISRDNAKNTVYFQMNSLKPEDTAVYYCAAQRTSHGRGVNGYVKYGYWGQGTIVTVSS”, “high polyreactivity”.
Under “QVQLVESGGGLVQAGGSLPLSCAASGRIYGGNVMGWYRQAPGKERELVAAISKRGDSTYYADSVKGRFTISRDNAKNTVYLQMNSLKPEDTAVYYCAAVRRGDRGTDMDYWGQGTQVTVSS” stands “high polyreactivity”; under “QVQLVESGGGLVQAGGSLPLSCAASGRTFGENAMGWYRQAPGKERELVAAITSGARTYYADSVKGRFTISRDNAKNTVYLQMNSLKPEDTAVYYCAKAYRRFSGGAGKQGGYYWGQGTQVTVSS”, “high polyreactivity”.
As to “QVQLVESGGGLVQAGGSLPLSCAASGRTFPVYAMGWYRQAPGKERELVARINSGGRTTDADSVKGRFTISRDNAKNTVYLPKNSLKPEDSAVYYCNADSTYFRFDYWGQGTQVTVSS”, the “polyreactivity (PSR sort gate)” value was “high polyreactivity”.
The result for “QVQLVESGGGLVQAGGSLPLSCAASGRTFWDNAMGWYRQAPGKERELVATITSGDSTNYADSVKWRFTISRDNAKNTVYLQMNSLKPEDTAVYDCARVIVFDAYEFDYWGQGTQVTVSS” reads “low polyreactivity”; that for “QVQLVESGGGLVQAGGSLPLSCAASGRTINTNAMGWSRQAPGKERELVAAISGGGSTYADSVKGRFTISRDNAKNTVYLQMNSLKPEDTAVYYCAAQNVWIYGFWRDYWGQGTQVTVSS”, “low polyreactivity”.
With “QVQLVESGGGLVQAGGSLPLSCAASGSTFAVYAMGWYRQAPGKERELVAAISFSGSTYADSVKGRFTISRDNAKNTVYLQMNSLKPEDTAVYYCAKEYRVFGWWYTKGDYWGQGTQVTVSS”, the “polyreactivity (PSR sort gate)” value is “low polyreactivity”.
Under “QVQLVESGGGLVQAGGSLPLSCAASGSTFLAYAMGWYRQAPGKERELVAAITWNSGSSTFYADSVKGRFTISRDNAKNTVYLQMNSLKPEDTAVYYCNADVPSPAYYGDGTPYREDNYWGQGTQVTVSS” stands “low polyreactivity”.
As to “QVQLVESGGGLVQAGGSLPLSCAASGSTFTYYAMGWYRKAPGKEGELVARITWTGGRTYYADSVKGRFTISRGNAKNTVYLQMNSVKTEDTAVYYCNALPYFFETQYDYWGQGTQVTVSS”, the “polyreactivity (PSR sort gate)” value was “low polyreactivity”.
The result for “QVQLVESGGGLVQAGGSLRFSCAASGFIFYRNTMGWYRQAPGKEREFVAAIRWRGGSTYYADSVKGRFTISRDNAKNTVYLQMNSLKPEDTAVYYCAADTRPGYSGFVYWGQGTQVTVSS” reads “high polyreactivity”; that for “QVQLVESGGGLVQAGGSLRFSCAASGFIFYYYDMGWYRQAPGKERELVATISRGGSTYYADSVKGRFTISRDNAKNTVYLQMNSLKPEDTAVYYCAAYRSFGYRNWNRFDYWGQGTQVTVSS”, “high polyreactivity”.
As to “QVQLVESGGGLVQAGGSLRFSCAASGFTFSHYAMGWYRQAPGQERELVAAITWSGGSTYYADSVKGRFTISRDNEKNTVYLQLNSVKPEDTAVYYCAAESYRDGVDYWGQGTQVTVSS”, the “polyreactivity (PSR sort gate)” value is on record as “high polyreactivity”.
The result for “QVQLVESGGGLVQAGGSLRFSCAASGFTFYEYAMGWYRQAPGKERELVAAINWNGGRTYYADSVKGRFTISRDNAKNTVYLQMNSLKPEDTAVYYCAARVAPKTKISRRYYWGQGTQVNVSS” reads “high polyreactivity”.
As for “QVQLVESGGGLVQAGGSLRFSCAASGFTFYVYAMGWYRHAPGKERELVAAISKSGGSTYYSDSVKGRFTISRDNAKNTVYLQMNSLKPEDTAVYYCAVYDKRSGYRGGHRYNSWGQGTQVTVSS”, the “polyreactivity (PSR sort gate)” value is “high polyreactivity”.
The result for “QVQLVESGGGLVQAGGSLRFSCAASGFTLQQYTMGWYRQAPGKERELVAAISTSGVRTYYADSVKGRFTISRDNAKNTVYLQMNSLKPEDTAVYYCNAAWVYGIGWYSGYDYWGQGTQVTVSS” reads “high polyreactivity”; that for “QVQLVESGGGLVQAGGSLRFSCAASGLYYYAMGWYRQAPGKERALVAVITYSGGSTYYADSVKGRFTISRDNGKNSVYLQMNSLKPEDTAVYNCAAEDYYVALPGLYDYWGQGTQVTVSS”, “low polyreactivity”.
Take “QVQLVESGGGLVQAGGSLRFSCAASGNIFVVYTMGWDRQAPGKERELVADITSIGTSTYYADSVKGRFTISRDNAKNTVYLQMNSLKPEDTAVYYCNKDGSVWGKYTEYYWGQGTQVTVAS”: the “polyreactivity (PSR sort gate)” value is “low polyreactivity”.
